Values joined by “and” are separate entries in the source; they are usually repeats but may differ in a detail not shown here. Equal entries are not always repeated.
Assay: Mouse weight under anti-CD14-IgG1 dosages of Example 7 (PDX mice)
Assay type: in vivo
Conditions: per mouse 1-5
Method: To evaluate concentrations for the anti-CD14-IgG1 antibody, PDX mice were treated with five different concentrations of the IgG1 antibody over a period of 28 days. For these experiments, drug administration on the PDX mice was performed intravenously on alternating 4 days and 3 days.
The five different concentrations of the anti-CD14-IgG1 antibody tested include 5 mg/kg, 10 mg/kg, 15 mg/kg, 25 mg/kg, and 40 mg/kg. A control regimen was utilized as a comparative example. […] The non-specific IgG1 has no binding affinity to antigen. […] Tumor weight and tumor volume were calculated as described above.

B1: D6DD3D001: mouse-derived anti-CD14 IgG1 antibody; VH SEQ ID NO: 1, VL SEQ ID NO: 3, heavy chain SEQ ID NO: 2, light chain SEQ ID NO: 4 (antibody)
heavy: DVQLQQSGPGLVKPSQSLSLTCTVTGYSITSDSAWNWIRQFPGNRLEWMGYISYSGSTSYNPSLKSRISITRDTSKNQFFLQLNSVTTEDTATYYCVRGLRFAYWGQGTLVTVSSPSVFLFPPKPKDTLMISRTPEVTCVVVDVSHEDPEVKFNWYVDGVEVHNAKTKPREEQYNSTYRVVSVLTVLHQDWLNGKEYKCKVSNKALPAPIEKTISKAKGQPREPQVYTLPPSREEMTKNQVSLTCLVKGFYPSDIAVEWESNGQPENNYKTTPPVLDSDGSFFLYSKLTVDKSRWQQGNVFSCSVMHEALHNHYTQKSLSLSPGK
light: DIVLTQSPASLAVSLGQRATISCRASESVDSYVNSFLHWYQQKPGQPPKLLIYRASNLQSGIPARFSGSGSRTDFTLTINPVEADDVATYYCQQSNEDPYTFGGGTKLEIKRTVAAPSVFIFPPSDEQLKSGTASVVCLLNNFYPREAKVQWKVDNALQSGNSQESVTEQDSKDSTYSLSSTLTLSKADYEKHKVYACEVTHQGLSSPVTKSFNRGEC
- Mouse Weight (Day 0, IgG1 (10 mg/kg), 10 mg/kg): 19.83 g and 20.73 g and 20.13 g and 20.77 g and 19.27 g
- Mouse Weight (Day 0, IgG1 (15 mg/kg), 15 mg/kg): 20.37 g and 19.02 g and 20.34 g and 19.62 g and 19.24 g
- Mouse Weight (Day 0, IgG1 (25 mg/kg), 25 mg/kg): 19.63 g and 20.3 g and 19.71 g and 20.07 g and 20.02 g
- Mouse Weight (Day 4, IgG1 (5 mg/kg), 5 mg/kg): 20.33 g and 20.63 g and 19.58 g and 19.86 g and 20.45 g
- Mouse Weight (Day 4, IgG1 (10 mg/kg), 10 mg/kg): 19.89 g and 20.39 g and 19.36 g and 20.74 g and 20.98 g
- Mouse Weight (Day 4, IgG1 (15 mg/kg), 15 mg/kg): 20.83 g and 19.54 g and 20.87 g and 20.44 g and 20.68 g
- Mouse Weight (Day 4, IgG1 (25 mg/kg), 25 mg/kg): 20.75 g and 19.2 g and 20.99 g and 20.16 g and 20.55 g
- Mouse Weight (Day 7, IgG1 (5 mg/kg), 5 mg/kg): 20.95 g and 20.07 g and 20.36 g and 20.83 g and 20.56 g
- Mouse Weight (Day 7, IgG1 (10 mg/kg), 10 mg/kg): 20.81 g and 19.35 g and 19.89 g and 20.23 g and 21.08 g
- Mouse Weight (Day 7, IgG1 (15 mg/kg), 15 mg/kg): 19.65 g and 20.62 g and 20.38 g and 20.56 g and 20.71 g
- Mouse Weight (Day 7, IgG1 (25 mg/kg), 25 mg/kg): 20.86 g and 20.2 g and 20.76 g and 21.38 g and 20.06 g
- Mouse Weight (Day 11, IgG1 (5 mg/kg), 5 mg/kg): 20.85 g and 20.72 g and 20.22 g and 21.21 g and 20.94 g
- Mouse Weight (Day 11, IgG1 (10 mg/kg), 10 mg/kg): 20.77 g and 20.5 g and 20.97 g and 21.03 g and 20.94 g
- Mouse Weight (Day 11, IgG1 (15 mg/kg), 15 mg/kg): 20.35 g and 20.89 g and 21.32 g and 21.08 g and 20.47 g
- Mouse Weight (Day 11, IgG1 (25 mg/kg), 25 mg/kg): 20.11 g and 20.4 g and 19.5 g and 20.84 g and 21.5 g
- Mouse Weight (Day 14, IgG1 (5 mg/kg), 5 mg/kg): 20.75 g and 21.06 g and 20.89 g and 21.69 g and 20.67 g
- Mouse Weight (Day 14, IgG1 (10 mg/kg), 10 mg/kg): 20.15 g and 20.69 g and 21.19 g and 21.53 g and 20.71 g
- Mouse Weight (Day 14, IgG1 (15 mg/kg), 15 mg/kg): 20.47 g and 21.16 g and 21.65 g and 20.87 g and 21.13 g
- Mouse Weight (Day 14, IgG1 (25 mg/kg), 25 mg/kg): 20.13 g and 21.05 g and 20.39 g and 21.39 g and 21.62 g
- Mouse Weight (Day 18, IgG1 (5 mg/kg), 5 mg/kg): 21.11 g and 21.36 g and 20.44 g and 20.69 g and 21.33 g
- Mouse Weight (Day 18, IgG1 (10 mg/kg), 10 mg/kg): 21.27 g and 20.66 g and 21.04 g and 20.85 g and 21.37 g
- Mouse Weight (Day 18, IgG1 (15 mg/kg), 15 mg/kg): 20.73 g and 21.69 g and 20.31 g and 20.9 g and 21.29 g
- Mouse Weight (Day 18, IgG1 (25 mg/kg), 25 mg/kg): 21.14 g and 21.03 g and 20.46 g and 21.57 g and 21.77 g
- Mouse Weight (Day 21, IgG1 (5 mg/kg), 5 mg/kg): 20.92 g and 21.85 g and 21.42 g and 21.87 g and 21.66 g
- Mouse Weight (Day 21, IgG1 (10 mg/kg), 10 mg/kg): 21.25 g and 21.16 g and 20.97 g and 21.13 g and 21.28 g
- Mouse Weight (Day 21, IgG1 (15 mg/kg), 15 mg/kg): 20.6 g and 21.12 g and 21.33 g and 20.4 g and 21.98 g
- Mouse Weight (Day 21, IgG1 (25 mg/kg), 25 mg/kg): 21.3 g and 22.05 g and 21.54 g and 20.62 g and 21.57 g
- Mouse Weight (Day 25, IgG1 (5 mg/kg), 5 mg/kg): 22.45 g and 21.06 g and 21.98 g and 22.14 g and 22.16 g
- Mouse Weight (Day 25, IgG1 (10 mg/kg), 10 mg/kg): 22.27 g and 22.35 g and 21.64 g and 20.37 g and 22.93 g
- Mouse Weight (Day 25, IgG1 (15 mg/kg), 15 mg/kg): 22.28 g and 21.01 g and 22.42 g and 20.52 g and 22.73 g
- Mouse Weight (Day 25, IgG1 (25 mg/kg), 25 mg/kg): 22.17 g and 21.73 g and 22.39 g and 21.5 g and 20.56 g
- Mouse Weight (Day 28, IgG1 (5 mg/kg), 5 mg/kg): 22.42 g and 23.8 g and 22.04 g and 21.81 g and 21.72 g
- Mouse Weight (Day 28, IgG1 (10 mg/kg), 10 mg/kg): 22.71 g and 23.8 g and 21.44 g and 22.24 g and 21.16 g
